Results published in publication PMC9646986, “A sandwich-like configuration with a signal amplification strategy using a methylene blue/aptamer complex on a heterojunction 2D MoSe2/2D WSe2 electrode: Toward a portable and sensitive electrochemica”.

Biological target: T1, alpha-fetoprotein (AFP) (UniProt P02771 19-609)
T1 sequence: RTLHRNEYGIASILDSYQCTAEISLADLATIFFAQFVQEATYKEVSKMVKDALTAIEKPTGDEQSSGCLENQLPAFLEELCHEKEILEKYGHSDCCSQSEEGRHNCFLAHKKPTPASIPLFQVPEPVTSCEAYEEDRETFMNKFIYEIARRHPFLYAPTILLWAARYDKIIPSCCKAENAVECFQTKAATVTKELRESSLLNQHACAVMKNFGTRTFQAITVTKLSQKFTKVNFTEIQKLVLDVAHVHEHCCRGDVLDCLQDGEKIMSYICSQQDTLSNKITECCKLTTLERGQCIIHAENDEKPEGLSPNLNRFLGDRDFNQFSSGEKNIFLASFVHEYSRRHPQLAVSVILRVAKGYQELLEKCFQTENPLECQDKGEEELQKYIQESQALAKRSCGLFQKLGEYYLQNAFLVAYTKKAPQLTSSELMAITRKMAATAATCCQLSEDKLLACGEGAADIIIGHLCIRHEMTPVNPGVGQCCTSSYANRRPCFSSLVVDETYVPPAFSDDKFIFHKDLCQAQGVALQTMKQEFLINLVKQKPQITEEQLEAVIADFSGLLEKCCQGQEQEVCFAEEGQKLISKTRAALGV
Assay: electrochemical sandwich assay (DPV, methylene blue read-out); AFP 50 ng/ml captured by anti-AFP; aptamer 10 uM; MB 10 mM; DPV in 0.010 M PBS pH 7.4 (performance section prints 0.0010 M); aptamer 10 uM, 40 min; temperature not given
Details: protein: commercial

B1: AFP aptamer (ssDNA)
DNA: GTGACGCTCCTAACGCTGACTCAGGTGCAGTTCTCGACTCGGTCTT
  binding result: binds
